# Laboratory results: paper PMC12038395, “Mechanistic insights into the activity of SARS-CoV-2 RNA polymerase inhibitors using single-molecule FRET”
# B1: Extension Template P1 / Extension Primer P12 short (overhang RNA) (structured_RNA)
# RNA 1: AAAAAAAAUUUUUUUUUUUUUUUAAUUCUUAAUCUCACAUAGC
# RNA 2: GCUAUGUGAGAUUAAGAAUU
# Molecular target: SARS-CoV-2 nsp12 (RdRp), wild type;SARS-CoV-2 nsp7;SARS-CoV-2 nsp8 (SARS-CoV-2;SARS-CoV-2;SARS-CoV-2, UniProt P0DTD1;P0DTD1;P0DTD1 4393-5324;3860-3942;3943-4140, ||)
# Test: EMSA (native gel); no NTP
# Details: protein: recombinant;recombinant;recombinant; tags: C-terminal His10 (TEV-cleaved protein A);GST-3C construct (E. coli); 9.4 kDa on gel;GST-3C construct (E. coli); 22 kDa on gel; copies: 1;1;2; label: Cy3 at template 5' end; Cy5 internal at primer position 12
binder,measurement,value
B1,binding result,binds
